# Data: the RNAGym collection of RNA variant scans (doi:10.1073/pnas.2313332121)
# B1: TPR t1 (parent)
# chain: GACCAAUCUGCCCUCAGAGCUCGAGAACAUCUUCGGAUGCAGAGGAGGCAGGCUUCGGUGGCGCGAUAGCGCCAACGUCCUCAACCUCCAAUGCAUCCCACCACAUGAUGAUGCCUGAAGAGCCUUGGUUUUUUG
# Variants of: B1
# Test: polymerase ribozyme fitness, log enrichment relative to wild type (log ratio); higher = more active; in vitro selection for triplet polymerase activity
# In short: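 Only genotypes with ≥10 input reads and ≥1 read per output were kept after Illumina sequencing of input and output libraries. These libraries were PCR-built, transcribed mutants of each subunit of a heterodimeric triplet polymerase ribozyme, each put through one triplicate in vitro selection round with frozen incubation at −7 °C, gel excision of extended constructs, streptavidin-bead capture and RT-PCR. Fitness is a logarithmic ratio of genotype enrichment to wild-type enrichment, from inverse-variance-weighted replicate averages, with the logarithm in base 2.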
row,Variant,polymerase ribozyme fitness (log ratio)
1,U87A C99A C115G G122U C124G,-7.12
2,C101A U131C,-0.88
3,U87A G120C U131G,1.11
4,C101A C104A A121C,-0.368
5,C89A U112A,-1.53
6,C94U U129A,-1.25
7,C94A C124A U125C U131A,-0.191
8,U87G G117A,-1.13
9,U92A,-2.8
10,U92C,-0.847
11,U92G,-2.38
12,A95C G110A,-2.49
13,U87G U130G,-0.21
14,A90G U92G C123A,-1.06
15,G93C U130G,-1.51
16,G93C G113A C124G,-0.942
17,C89U U133G,-0.403
18,U96G G117A A119G,0.491
19,G93C G117A,-1.09
20,C94G U130A G135U,-1.4
21,C97G C104U,-3.29
22,U96A U133G,-0.674
23,U87C C115U,-0.297
24,C97G A103U,-5.1

row,Variant,polymerase ribozyme fitness (log ratio)
1,C88A U126A,-3.12
2,U87A U130C,-1.39
3,U96A A121C,1.1
4,U96A A121G,0.527
5,G93U A111G,-0.352
6,G93U C102A G120A,-2.52
7,C99U G128A U129A,-5.76
8,U92C G128C,-3.41
9,C98U U125A,-1.46
10,C97U G113C,-2.71
11,A95U G117C,-4.23
12,C89A G113C G117A,-5.73
13,C86U G120A,0.277
14,C94A U112G C124G,0.054
15,C94U A108U C124A,-4.49
16,G93U U96A,-2.6
17,A91G C104U A118C C123G C124A U126A,-0.422
18,C98U A119U,-1.28
19,U96A U131C,-1.19
20,C89A G110A,-3.58
21,C89A G110U,-3.66
22,C89G C104U A121U,1.58
23,U87A U106A,0.566
24,C88U U106A C114G,-5.05

row,Variant,polymerase ribozyme fitness (log ratio)
1,C94U U112A C124G,1.39
2,C88A C99U G113A C114U,-5.9
3,C99U C123A,-3.32
4,U96G G113C,-2.59
5,A91G C115U,-1.36
6,C88U C89A C115U G117C U126A,-3.5
7,G93C C101A C104U,-2.05
8,A95U U106G G120U,-2.83
9,A90C C104U,-0.65
10,C89A A100U C115G,-5.22
11,A91U C102U,-4.75
12,C89A C97U,-2.16
13,U92C C99G G113U,-6.05
14,C99U C101U,-2.29
15,C99U C101A,-4.62
16,G93A U116C,-1.68
17,U96C C102U G110A G122U,-6.13
18,C101A,-1.14
19,C101G,-1.66
20,C98U G120C,-0.208
21,C98U A105G C114G C115A G135U,-7.98
22,A100U C123G,-1.75
23,C88U C101U,-0.588
24,A91U C123G,0.354

row,Variant,polymerase ribozyme fitness (log ratio)
1,C88A C94U,-0.581
2,C88A C94A,-1.66
3,C89A U132C,-1.96
4,U96G C114A,0.0255
5,U87A G113C,-2.81
6,U96G G120A,-0.241
7,U96G G120U,-0.269
8,A91C A111C,-2.03
9,C94A G128A,-2.41
10,C94U G113C,-2.26
11,C94G U116C A118C,-3.89
12,C94U U131A,-0.362
13,C88G C124U,0.871
14,C88G C124G,1.77
15,C94A U96A,-6.34
16,G93A C104U,-0.0844
17,C97G C102G A111G,-6.52
18,G93A C99U,-4.67
19,C88U G122A,-1.42
20,C97A C123G,-3.19
21,U96C G128U,-1.67
22,A95C G128C,-2.12
23,U87A A121G,1.17
24,U87A A121C,1.23

row,Variant,polymerase ribozyme fitness (log ratio)
1,A90G G113U A118C,-4.53
2,C101A U112G C115A,-0.657
3,A91U G120A,-0.951
4,A100C G120A,1.47
5,G93U G120C,-0.763
6,A90U U106A A111U,-3.8
7,C94U G110A,-1.18
8,U92G A121G,-0.555
9,U87C G117A,-1.27
10,C101A G127C,-1.82
11,C97U A121U,1.5
12,U87C C88A U106G,-2.76
13,C86U U130C,0.0697
14,U87A A105U,-1.78
15,C89U G128C,-3.21
16,C88A C99A U125G,-6.88
17,C89G U106A G120C G122C,-1.85
18,C88A C104A,-1.63
19,A100C U112C A118G,0.0171
20,A100C U133G,-1.12
21,A90U A100C A119G,-2.07
22,A91C U112A C123A G128C,-3.53
23,C94U G117U,0.0636
24,C88U C97U,-1.02

row,Variant,polymerase ribozyme fitness (log ratio)
1,U87A G93A,-0.908
2,A90U G113U,-2.89
3,C88U G113C,-2.8
4,C88U G113U,-3.09
5,C94A C114U,-2.56
6,C99U U134C,-4.03
7,C101A C114A,-2.19
8,C101A C114U,-2.99
9,C94A A95C U131G,-2.37
10,C94G G117A,-2.51
11,G93C G120A U130C,0.452
12,U96A C124U,1.03
13,A91U G127U,-3.19
14,A100U U112G,-0.123
15,C89U C123U,0.813
16,A100C U112G,-0.251
17,C89U U126C,-1.11
18,A91C C114U,-3.62
19,C98U A118C,-4.03
20,C88A G120U,-0.146
21,U96A A111G,-1.84
22,A90G A95G U133G,-0.0907
23,C101G C102G G110C,-4.36
24,C88U A118U,0.45

row,Variant,polymerase ribozyme fitness (log ratio)
1,C88A C104A A121U U130C,0.158
2,G93A U112A,0.918
3,C88G C97A C104U,-5.23
4,C88G U96A,-2.61
5,C88U U112A,0.961
6,C89U G110U A121G,-1.62
7,A91C U125A,-2.71
8,U92A A111G U129C U132C,-3.54
9,U87C A90G C94U,0.339
10,U87C A90C C115A,-0.371
11,U92A C114U,-3.08
12,C88A G117U,-2.84
13,C94U U125G,-1.32
14,C94U U125A,-0.818
15,U87A C101U,0.0521
16,C94U A100G G120U,-3.95
17,C98U A121C U125A U129A,-1.75
18,U87C C94A,-0.939
19,C88U C98A,-4.94
20,C97U G127A,-1.48
21,A91C A103C,-7.08
22,A90C G107C G110C,-6.73
23,A90C C114U G128U,-4.34
